Measured values: patent US20110263454A1, “Methods of Identifying Functional Characteristics of Promoters, Transcription Modifying Proteins and Transcription Modulating Agents” (Salk Institute for Biological Studies, priority 2008, published 2011)

B1: RORa: RAR-related Orphan Receptor α (NR1F1), cDNA driver (protein, UniProt P35398 1-523, looked up)
Nuclear receptor ROR-alpha: MESAPAAPDPAASEPGSSGADAAAGSRETPLNQESARKSEPPAPVRRQSYSSTSRGISVTKKTHTSQIEIIPCKICGDKSSGIHYGVITCEGCKGFFRRSQQSNATYSCPRQKNCLIDRTSRNRCQHCRLQKCLAVGMSRDAVKFGRMSKKQRDSLYAEVQKHRMQQQQRDHQQQPGEAEPLTPTYNISANGLTELHDDLSNYIDGHTPEGSKADSAVSSFYLDIQPSPDQSGLDINGIKPEPICDYTPASGFFPYCSFTNGETSPTVSMAELEHLAQNISKSHLETCQYLREELQQITWQTFLQEEIENYQNKQREVMWQLCAIKITEAIQYVVEFAKRIDGFMELCQNDQIVLLKAGSLEVVFIRMCRAFDSQNNTVYFDGKYASPDVFKSLGCEDFISFVFEFGKSLCSMHLTEDEIALFSAFVLMSADRSWLQEKVKIEKLQQKIQLALQHVLQKNHREDGILTKLICKVSTLRALCGRHTEKLMAFKAIYPDIVRLHFPPLYKELFTSEFEPAMQIDG
B2: RORg: RAR-related Orphan Receptor γ (NR1F3), cDNA driver (protein, UniProt P51449 1-518, looked up)
Nuclear receptor ROR-gamma: MDRAPQRQHRASRELLAAKKTHTSQIEVIPCKICGDKSSGIHYGVITCEGCKGFFRRSQRCNAAYSCTRQQNCPIDRTSRNRCQHCRLQKCLALGMSRDAVKFGRMSKKQRDSLHAEVQKQLQQRQQQQQEPVVKTPPAGAQGADTLTYTLGLPDGQLPLGSSPDLPEASACPPGLLKASGSGPSYSNNLAKAGLNGASCHLEYSPERGKAEGRESFYSTGSQLTPDRCGLRFEEHRHPGLGELGQGPDSYGSPSFRSTPEAPYASLTEIEHLVQSVCKSYRETCQLRLEDLLRQRSNIFSREEVTGYQRKSMWEMWERCAHHLTEAIQYVVEFAKRLSGFMELCQNDQIVLLKAGAMEVVLVRMCRAYNADNRTVFFEGKYGGMELFRALGCSELISSIFDFSHSLSALHFSEDEIALYTALVLINAHRPGLQEKRKVEQLQYNLELAFHHHLCKTHRQSILAKLPPKGKLRSLCSQHVERLQIFQHLHPIVVQAAFPPLYKELFSTETESPVGLSK
B3: HNF4a: Hepatocyte Nuclear Factor α (NR2A1), cDNA driver (protein, UniProt P41235 1-474, looked up)
Hepatocyte nuclear factor …: MRLSKTLVDMDMADYSAALDPAYTTLEFENVQVLTMGNDTSPSEGTNLNAPNSLGVSALCAICGDRATGKHYGASSCDGCKGFFRRSVRKNHMYSCRFSRQCVVDKDKRNQCRYCRLKKCFRAGMKKEAVQNERDRISTRRSSYEDSSLPSINALLQAEVLSRQITSPVSGINGDIRAKKIASIADVCESMKEQLLVLVEWAKYIPAFCELPLDDQVALLRAHAGEHLLLGATKRSMVFKDVLLLGNDYIVPRHCPELAEMSRVSIRILDELVLPFQELQIDDNEYAYLKAIIFFDPDAKGLSDPGKIKRLRSQVQVSLEDYINDRQYDSRGRFGELLLLLPTLQSITWQMIEQIQFIKLFGMAKIDNLLQEMLLGGSPSDAPHAHHPLHPHLMQEHMGTNVIVANTMPTHLSNGQMCEWPRPRGQAATPETPQPSPPGGSGSEPYKLLPGAVATIVKPLSAIPQPTITKQEVI
B4: LXRb: Liver X Receptor β (NR1H2), cDNA driver (protein, UniProt P55055 1-460, looked up)
Oxysterols receptor LXR-beta: MSSPTTSSLDTPLPGNGPPQPGAPSSSPTVKEEGPEPWPGGPDPDVPGTDEASSACSTDWVIPDPEEEPERKRKKGPAPKMLGHELCRVCGDKASGFHYNVLSCEGCKGFFRRSVVRGGARRYACRGGGTCQMDAFMRRKCQQCRLRKCKEAGMREQCVLSEEQIRKKKIRKQQQESQSQSQSPVGPQGSSSSASGPGASPGGSEAGSQGSGEGEGVQLTAAQELMIQQLVAAQLQCNKRSFSDQPKVTPWPLGADPQSRDARQQRFAHFTELAIISVQEIVDFAKQVPGFLQLGREDQIALLKASTIEIMLLETARRYNHETECITFLKDFTYSKDDFHRAGLQVEFINPIFEFSRAMRRLGLDDAEYALLIAINIFSADRPNVQEPGRVEALQQPYVEALLSYTRIKRPQDQLRFPRMLMKLVSLRTLSSVHSEQVFALRLQDKKLPPLLSEIWDVHE

Experiments:
mPer1 promoter = assay: NHR-promoter luciferase screen, mPer1 promoter; format: cell-based, mouse; conditions: for Luc. act., normalized to lacZ / Normalized Luc. act., normalized to control: Per1 promoter reporter, co-transfected HR, with or without its ligand; for Normalized Luc. act., normalized to control: relative to control; for luciferase activity normalized to lacZ activity and to a control, mPer1: mPer1 promoter-luciferase, CV-1 cells, NHR +/- ligand, control = 1.00
Protocol: (§1) The use, feasibility, and reproducibility of the functional NHR-promoter screen in a 48-well format have been tested validated. Briefly, there were co-expressed 50 ng of each NHR/NHR homodimer or NHR/RXR heterodimer with 100 ng promoter/luciferase construct and 50 ng of LacZ (as a control for transfection efficiency) in CV-1 cells using Fugene HD (Roche) as a transfection reagent (alternatively or additionally, a CMV-YFP construct can be used as a transfection control). Each of the nuclear hormone receptors that were used in these experiments was cloned into a pcDNA3.1 vector and comprised a C-terminally linked V5H6 tag. Twenty-four hours after transfection, appropriate ligands were added, where applicable, (see Table 5 for various ligands and concentrations and after 48 hrs, samples were assayed for luciferase and LacZ activity. To measure for luciferase activity 15 ul of sample was added to 30 ul of luciferase buffer (20 mM tricine, 1.07 mM MgCarbonate, 2.67 mM MgSulfate, 0.1 mM Naz-EDTA, 5 mM DTT, 5 mM ATP, 0.15 mg/ml CoA, 0.5 mM Luciferin), mixed briefly, and run in a Perkin Elmer Victor 5 luminometer. Thus, the functional NHR-promoter screen was used to observe the transcriptional activity of 29 promoters from various physiological pathways including inflammation, lipid and sugar metabolism, cholesterol transport, xenobiotic metabolism, and circadian rhythm.
(§2) The promoters that facilitate transcription of the indicated gene products that were tested using the protocols described herein are listed in the first row of the table. The nuclear hormone receptors and, where applicable, ligands that were assayed for their transcriptional effects on the promoters are listed in the first column of the table. The data represent the luciferase activity of each sample normalized to both the lacZ activity of that sample and to a control, e.g., no NHR or ligand, as customary in the art. As described previously, these normalizations allow the transcriptional activity of each reporter cell to be compared to other samples.
(§3) Tables 7-40 show the transcriptional effects of the hormone receptors, and, where applicable, ligands (orphan receptors are screened without ligand), on each individual promoter. […] The control data of each table are shown in their last rows.

mUCP3 promoter = assay: NHR-promoter luciferase screen, mUCP3 promoter; format: cell-based, mouse; conditions: for Normalized Luc. act., normalized to control / Luc. act., normalized to lacZ: mUCP3 promoter reporter; for Normalized Luc. act., normalized to control: HR without or with its ligand, relative to control; for Luc. act., normalized to lacZ: hormone receptor (HR) without or with its ligand; for mUCP3 promoter reporter activity: transcription factor +/- ligand, control = 1.00
Protocol: as §1, §2, §3

MCP-1 promoter = assay: NHR-promoter luciferase screen, MCP-1 promoter; format: cell-based; conditions: for Normalized Luc. act., normalized to control / Luc. act., normalized to lacZ: MCP-1 promoter reporter; for Normalized Luc. act., normalized to control: HR without or with its ligand, relative to control; for Luc. act., normalized to lacZ: hormone receptor (HR) without or with its ligand; for mMCP-1 promoter reporter activity: transcription factor +/- ligand, control = 1.00
Protocol: as §1, §2, §3

hCYP3A4 promoter = assay: NHR-promoter luciferase screen, hCYP3A4 promoter; format: cell-based, human; conditions: for Luc. act., normalized to lacZ / Normalized Luc. act., normalized to control: CYP3A4 promoter, HR/ligand component; for hCYP3A4 promoter reporter activity: transcription factor +/- ligand, control = 1.00
Protocol: Briefly, there were co-expressed 50 ng of each NHR/NHR homodimer or NHR/RXR heterodimer with 100 ng promoter/luciferase construct and 50 ng of LacZ (as a control for transfection efficiency) in CV-1 cells using Fugene HD (Roche) as a transfection reagent (alternatively or additionally, a CMV-YFP construct can be used as a transfection control). Each of the nuclear hormone receptors that were used in these experiments was cloned into a pcDNA3.1 vector and comprised a C-terminally linked V5H6 tag.
as §2, §3

mADRP promoter = assay: NHR-promoter luciferase screen, mADRP promoter; format: cell-based, mouse; conditions: for Luc. act., normalized to lacZ / Normalized Luc. act., normalized to control: ADRP promoter, HR/ligand component; for mADRP promoter reporter activity: transcription factor +/- ligand, control = 1.00
Protocol: as §1, §2, §3

mABCA1 promoter = assay: NHR-promoter luciferase screen, mABCA1 promoter; format: cell-based, mouse; conditions: for Luc. act., normalized to lacZ / Normalized Luc. act., normalized to control: ABCA1 promoter, hormone receptor with or without its ligand; for Normalized Luc. act., normalized to control: relative to control; for mABCA1 promoter reporter activity: transcription factor +/- ligand, control = 1.00
Protocol: as §1, §2, §3

Row | Molecule | Luc. act., normalized to lacZ (mPer1 promoter) | Normalized Luc. act., normalized to control (mPer1 promoter) | luciferase activity normalized to lacZ activity and to a control, mPer1 (mPer1 promoter) | Normalized Luc. act., normalized to control (mUCP3 promoter) | Luc. act., normalized to lacZ (mUCP3 promoter) | mUCP3 promoter reporter activity (mUCP3 promoter) | Normalized Luc. act., normalized to control (MCP-1 promoter) | Luc. act., normalized to lacZ (MCP-1 promoter) | mMCP-1 promoter reporter activity (MCP-1 promoter) | Luc. act., normalized to lacZ (hCYP3A4 promoter) | Normalized Luc. act., normalized to control (hCYP3A4 promoter) | hCYP3A4 promoter reporter activity (hCYP3A4 promoter) | Luc. act., normalized to lacZ (mADRP promoter) | Normalized Luc. act., normalized to control (mADRP promoter) | mADRP promoter reporter activity (mADRP promoter) | Luc. act., normalized to lacZ (mABCA1 promoter) | Normalized Luc. act., normalized to control (mABCA1 promoter) | mABCA1 promoter reporter activity (mABCA1 promoter)
1 | ERR1: Estrogen Related Receptor α (NR3B1, ERRa), cDNA driver | 197.1 | 1.4 | 1.37 | 1.5 | 1.0 | 1.47 | 2.2 | 237.3 | 2.22 | 4.5 | 1.0 | 1.01 | 767.6 | 1.5 | 1.54 | 8.2 | 1.5 | 1.47
2 | B1 | 107.9 | 0.7 | 0.75 | 2.6 | 1.7 | 2.56 | 1.4 | 150.7 | 1.41 | 1.6 | 0.4 | 0.36 | 976.2 | 2.0 | 1.96 | 33.0 | 5.9 | 5.87
3 | B2 | 176.3 | 1.2 | 1.22 | 2.4 | 1.6 | 2.38 | 2.8 | 301.2 | 2.81 | 3.4 | 0.8 | 0.76 | 929.8 | 1.9 | 1.87 | 29.4 | 5.2 | 5.23
4 | B3 | 93.1 | 0.6 | 0.65 | 1.1 | 0.7 | 1.06 | 0.7 | 78.0 | 0.73 | 1.7 | 0.4 | 0.37 | 729.1 | 1.5 | 1.47 | 10.7 | 1.9 | 1.90
5 | B4 | 117.6 | 0.8 | 0.82 | 1.7 | 1.2 | 1.73 | 1.9 | 198.9 | 1.86 | 4.8 | 1.1 | 1.08 | 1191.8 | 2.4 | 2.40 | 46.3 | 8.3 | 8.25
